According to the supplement of paper PMC11908140:

B1: library; numbered along this chain (parent)
chain: MRKPRAAVGSGHRKQAASQEGRQKHAKNNSQAKPSACDGLARQPEEVVLQASVSSYHLFRDVAEVTAFRGSLLSWYDQEKRDLPWRRRAEDEMDLDRRAYAVWVSEVMLQQTQVATVINYYTGWMQKWPTLQDLASASLEEVNQLWAGLGYYSRGRRLQEGARKVVEELGGHMPRTAETLQQLLPGVGRYTAGAIASIAFGQATGVVDGNVARVLCRVRAIGADPSSTLVSQQLWGLAQQLVDPARPGDFNQAAMELGATVCTPQRPLCSQCPVESLCRARQRVEQEQLLASGSLSGSPDVEECAPNTGQCHLCLPPSEPWDQTLGVVNFPRKASRKPPREESSATCVLEQPGALGAQILLVQRPNSGLLAGLWEFPSVTWEPSEQLQRKALLQELQRWAGPLPATHLRHLGEVVHTFSHIKLTYQVYGLALEGQTPVTTVPPGARWLTQEEFHTAAVSTAMKKVFRVYQGQQPGTCMGSKRSQVSSPCSRKKPRMGQQVLDNFFRSHISTDAHSLNSAAQ

Variants of: B1
Test: 8OG:A repair function score (normalized; synonymous = 0, nonsense = -1) (normalized log-likelihood score); higher = more repair activity (WT-like)
Settings: with 8OG:A DNA repair reporter (GFP) in HEK-293 MUTYH KO cells
In short: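 Lentiviral MUTYH cDNA NNN codon-scan libraries in HEK-293 MUTYH knockout cells (10 pg/ml doxycycline) were co-transfected with an 8OG:A GFP repair reporter plus mCherry. At 72 h, viable mCherry+ cells were sorted into GFP+ (repair) and GFP− bins, three replicates per tile, then tile amplicons were sequenced. Per-tile Rosace fitness scores became a normalized repair function score anchored on synonymous and nonsense distributions. Synonymous medians were set to 0 and nonsense to -1; variants under 300 counts per million at the start were removed.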

8OG:A repair function score: each site, then its substitutions
C304: W -0.296 | T -0.454 | R -0.464 | A -0.225 | K -0.535 | E -0.556 | M -0.303 | Y -0.341 | S -0.289 | Q -0.421 | H -0.403 | I -0.257 | G -0.343 | D -0.518 | N -0.439 | P -0.398 | V -0.331 | F -0.29
Q310: H -0.0309 | L -0.0215 | Y -0.0597 | K -0.0227 | M -0.0144 | D 0.0119 | I 0.0174 | S -0.0462 | F -0.0295 | V -0.0252 | P -0.0353 | W -0.0199 | A -0.00829 | E -0.0263 | C 0.0147 | N 0.00143 | T 0.0177 | R -0.0435 | G -0.0488
E302: D -0.367 | R -0.254 | T -0.238 | C -0.32 | P -0.223 | K -0.367 | Q -0.207 | I -0.284 | H -0.259 | V -0.232 | W -0.215 | L -0.236 | G -0.316 | Y -0.246 | S -0.307 | M -0.216 | A -0.273 | N -0.316 | F -0.253
P316: L -0.126 | Q 0.0822 | G 0.00918 | S -0.123 | F -0.198 | T -0.057 | C -0.0546 | I -0.253 | H -0.123 | R -0.109 | K -0.0182 | N -0.154 | M -0.238 | V -0.121 | W -0.331 | A -0.176 | D -0.0567 | Y -0.161 | E 0.0013
N307: H -0.0535 | Q -0.00475 | P -0.0382 | L -0.079 | V 0.0207 | T -0.07 | E -0.0119 | D 0.0758 | M -0.145 | F -0.00176 | C -0.119 | K -0.0345 | I -0.0284 | W -0.0672 | S -0.00118 | Y -0.0923 | G -0.0226 | R -0.00117 | A -0.0752
E303: Q 0.0405 | K -0.0605 | L -0.0849 | I -0.101 | Y -0.231 | W -0.175 | T -0.0474 | N -0.0416 | S -0.0938 | G -0.0952 | P -0.218 | F -0.112 | A -0.0517 | M 0.000479 | D -0.0577 | C -0.0302 | H -0.102 | R -0.0675 | V -0.0344
C314: A -0.468 | T -0.575 | F -0.764 | D -0.532 | Y -0.572 | N -0.553 | L -0.616 | M -0.46 | G -0.468 | V -0.631 | S -0.593 | I -0.652 | R -0.482 | E -0.317 | W -0.679 | K -0.485
P306: C -0.044 | T -0.00972 | W -0.009 | H -0.0537 | R -0.0125 | S -0.0289 | V -0.015 | D -0.0656 | I -0.0314 | Q 0.0003 | K -0.0963 | L -0.00346 | N -0.00787 | Y -0.0217 | A -0.0211 | F -0.0382 | G -0.0173 | M -0.0214 | E -0.0828
C311: F -0.55 | W -0.459 | M -0.621 | Q -0.575 | A -0.544 | V -0.634 | I -0.59 | T -0.566 | E -0.757 | L -0.479 | S -0.588 | Y -0.394 | G -0.505 | D -0.559 | N -0.628 | P -0.312 | H -0.471 | K -0.39 | R -0.481
